Data as given in the RNAGym collection of RNA variant scans (doi:10.1021/acssynbio.7b00057).

B1: Pistol ribozyme (parent)
chain: GGGUCGUUGUUCCAUAAUCGCGUGGAUAUGGCACGCAAGUUUCUACCGGGCACCGUAAAUGUCCGACUGGAGCCGUUCGGGCGGCUAUAAACAGACCUCAGGCCCGAAGCGUGGCGGCACCUGCCGCCGGUGGUAAAAAAGAUCGGAAGAGCACACGUCU

Variants of: B1
Assay: aptazyme ON/OFF ratio, guanine; higher = stronger switching; co-transcriptional cleavage with and without guanine

Compared with U7G U8G G9A U10C C12G C13G, U7G U8G G9A U10C C12G C13A is higher in “aptazyme ON/OFF ratio” value: 1.16 for the first, 1.26 for the second.

Going from U7G U8G G9A U10C C12G C13U to U7G U8C U10G C12G C13G, the “aptazyme ON/OFF ratio” value falls from 1.33 to 1.13.

Going from U7G U8C U10G C12G C13U to U7G U8C U10G C12G C13A, the “aptazyme ON/OFF ratio” value rises from 1.08 to 1.12.

First: U7G U8C U10G U11G C12G
Second: U7G U8C U10G U11G C12U
The “aptazyme ON/OFF ratio” value of the first is lower: 1.22 for the first, 1.43 for the second.

First: U7G U8C U10G U11G C12A
Second: U7G U8G G9A U10C U11C C12G C13U
The “aptazyme ON/OFF ratio” value of the first is higher: 1.18 for the first, 1.12 for the second.

Going from U7G U8G G9A U10C U11C C12G C13G to U7G U8G G9A U10C U11C C12G C13A, the “aptazyme ON/OFF ratio” value rises from 1.03 to 1.16.

Going from U7G U8C U10G U11G to U7G U8C U10G U11C, the “aptazyme ON/OFF ratio” value rises from 1.31 to 2.14.

Compared with U7G U8C U10G U11A, U7G U8G G9A U10G C12U C13G is higher in “aptazyme ON/OFF ratio” value: 1.21 for the first, 1.31 for the second.

First: U7G U8G G9A U10G C12U C13U
Second: U7G U8G G9A U10G C12U C13A
The “aptazyme ON/OFF ratio” value of the first is lower: 1.17 for the first, 1.25 for the second.

First: U7G U8G G9A U10C C12U C13G
Second: U7G U8G G9A U10C C12U C13U
The “aptazyme ON/OFF ratio” value of the first is lower: 1.18 for the first, 1.29 for the second.

Compared with U7G U8G G9A U10C C12U C13A, U7G U8C U10G is higher in “aptazyme ON/OFF ratio” value: 1.11 for the first, 1.31 for the second.

First: U7G U8C U10G U11C C12G C13A
Second: U7G U8C U10G U11C C12G C13G
The “aptazyme ON/OFF ratio” value of the first is higher: 1.28 for the first, 1.18 for the second.

First: U7G U8C U10G U11C C12G C13U
Second: U7G U8G G9A U10G U11C C13U
The “aptazyme ON/OFF ratio” value of the first is higher: 1.36 for the first, 1.08 for the second.

Compared with U7G U8G G9A U10G U11C C13G, U7G U8G G9A U10G U11C C13A is higher in “aptazyme ON/OFF ratio” value: 1.08 for the first, 1.15 for the second.

Going from U7G U8G G9A U10A U11C C12A C13G to U7G U8G G9A U10A U11C C12A C13A, the “aptazyme ON/OFF ratio” value falls from 1.17 to 1.06.

Going from U7G U8G G9A U10A U11C C12A C13U to U7G U8G G9A C12G C13U, the “aptazyme ON/OFF ratio” value rises from 1.09 to 1.3.

U7G U8G G9A C12G C13G and U7G U8G G9A C12G C13A are the same in “aptazyme ON/OFF ratio” value: 1.14 for the first, 1.14 for the second.

Compared with U7G U8G G9A C13A, U7G U8G G9A C13U is lower in “aptazyme ON/OFF ratio” value: 1.5 for the first, 1.36 for the second.

Compared with U7G U8G G9A C13G, U7G U8G G9A U10A U11C C13U is lower in “aptazyme ON/OFF ratio” value: 1.17 for the first, 1.05 for the second.

Going from U7G U8G G9A U10A U11C C13G to U7G U8G G9A U10A U11C C13A, the “aptazyme ON/OFF ratio” value rises from 1.06 to 1.08.

First: U7G U8G G9A U10G U11G C12G C13A
Second: U7G U8G G9A U10G U11C
The “aptazyme ON/OFF ratio” value of the first is higher: 1.23 for the first, 1.05 for the second.

Compared with U7G U8G G9A U10G U11G, U7G U8G G9A U10G U11A is lower in “aptazyme ON/OFF ratio” value: 1.61 for the first, 1.07 for the second.

First: U7G U8C U11G C12U C13U
Second: U7G U8C U11G C12U C13A
The “aptazyme ON/OFF ratio” value of the first is higher: 1.22 for the first, 1.14 for the second.

First: U7G U8C U11G C12U C13G
Second: U7G U8G C13A
The “aptazyme ON/OFF ratio” value of the first is lower: 1.08 for the first, 1.4 for the second.

Going from U7G U8G C13U to U7G U8G C13G, the “aptazyme ON/OFF ratio” value falls from 1.7 to 1.42.

First: U7G U8G G9A
Second: U7G U8G G9A C12U C13A
The “aptazyme ON/OFF ratio” value of the first is higher: 3.82 for the first, 1.27 for the second.

First: U7G U8G G9A C12U C13U
Second: U7G U8G G9A C12U C13G
The “aptazyme ON/OFF ratio” value of the first is higher: 1.41 for the first, 1.22 for the second.

Compared with U7G U8G G9A U10G U11C C12G C13G, U7G U8G G9A U10G U11C C12G C13U is higher in “aptazyme ON/OFF ratio” value: 1.13 for the first, 1.28 for the second.

Compared with U7G U8G G9A U10G U11C C12G C13A, U7G U8G G9A U10A U11A C12U is higher in “aptazyme ON/OFF ratio” value: 1.16 for the first, 1.35 for the second.

Going from U7G U8G G9A U10A U11A C12G to U7G U8G G9A U10A U11A C12A, the “aptazyme ON/OFF ratio” value rises from 1.16 to 1.19.

First: U7G U8G G9A U10A C13A
Second: U7G U8G G9A U10A C13U
The “aptazyme ON/OFF ratio” value of the first is lower: 1.28 for the first, 1.37 for the second.

Compared with U7G U8G G9A U10A C13G, U7G U8G G9A U10A U11A C12U C13G is lower in “aptazyme ON/OFF ratio” value: 1.17 for the first, 1.13 for the second.

First: U7G U8G G9A U10A U11A C12U C13A
Second: U7G U8G G9A U10A U11A C12U C13U
The “aptazyme ON/OFF ratio” value of the first is lower: 1.03 for the first, 1.24 for the second.

First: U7G U8G G9A U10G U11G C12A
Second: U7G U8G G9A U10G U11G C12G
The “aptazyme ON/OFF ratio” value of the first is lower: 1.21 for the first, 1.3 for the second.

Compared with U7G U8G G9A U10A U11C C12U C13A, U7G U8G G9A U10A U11C C12U C13U is higher in “aptazyme ON/OFF ratio” value: 1.08 for the first, 1.15 for the second.

First: U7G U8G G9A U10A U11C C12U C13G
Second: U7G U8G G9A U10C U11G C12G C13G
The “aptazyme ON/OFF ratio” value of the first is higher: 1.17 for the first, 1.14 for the second.

Compared with U7G U8G G9A U10C U11G C12G C13U, U7G U8G G9A U10C U11G C12G C13A is higher in “aptazyme ON/OFF ratio” value: 1.08 for the first, 1.1 for the second.

Compared with U7G U8G G9A U10C C12G, U7G U8G G9A U10C C12U is higher in “aptazyme ON/OFF ratio” value: 1.28 for the first, 1.59 for the second.

Going from U7G U8G G9A U10C C12A to U7G U8C U11G C12A C13A, the “aptazyme ON/OFF ratio” value falls from 1.46 to 1.13.

First: U7G U8C U11G C12A C13U
Second: U7G U8C U11G C12A C13G
The “aptazyme ON/OFF ratio” value of the first is higher: 1.19 for the first, 1.15 for the second.

Going from U7G U8G G9A U10C U11C C12A to U7G U8G G9A U10C U11C C12U, the “aptazyme ON/OFF ratio” value falls from 1.22 to 1.1.

In the case of U7G U8G G9A U10C U11C C12G, the “aptazyme ON/OFF ratio” value is reported as 1.21.
